± gives the uncertainty stated by the source.
Test: amyloid nucleation score (Sup35N fusion, yeast selection) (log enrichment); library NNK2; higher = more nucleation; inactive = no reads after selection
How it was run: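 The nucleation score is the log enrichment of output over input reads, calculated with DiMSum and centred on the mode score of non-aggregating sequences. Sequences with under 100 input reads were excluded. Reads came from Illumina sequencing of plasmid inserts from psi-negative yeast expressing Sup35N fused to peptides of 20 random codons, induced 24 hours with 100 μM copper sulfate and grown 7 days at 30°C without adenine and uracil.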

## YLARASYS
  amyloid nucleation score: 0.258 ± 0.18

## SSTKIFHLL
  amyloid nucleation score: inactive

## AMDASR
  amyloid nucleation score: 1.7 ± 0.12

## GFVLILTAIYVVGCINICAM
  amyloid nucleation score: 5.66 ± 0.064

## CSIVVNQARCDGSCNYRKVM
  amyloid nucleation score: 9.731 ± 0.055

## DYSLSWVRYSFAYRGVSKDG
  amyloid nucleation score: 0.061 ± 0.12

## ITCIAGWSNLNDYVFYTVAS
  amyloid nucleation score: inactive

## NKFDRFMFPRVR
  amyloid nucleation score: -0.98 ± 0.35

## WSDLFRRTMCGVW
  amyloid nucleation score: 0.624 ± 0.66

## WSRKECG
  amyloid nucleation score: 0.408 ± 0.4

## ANSVCDNVVTVSLLRLYMVL
  amyloid nucleation score: 5.39 ± 0.071

## VSAEWLYTGVWPMRLRSSGV
  amyloid nucleation score: 3.95 ± 0.055

## SFRFMFEVLSVVTYSTRGCA
  amyloid nucleation score: 2.92 ± 0.067

## QWMRSWNDTGRAES
  amyloid nucleation score: 2.13 ± 0.1

## RSSTLNRRKNKGGSTNVDCL
  amyloid nucleation score: 0.355 ± 0.56

## FKSLVVSLCIPSDMNNLKCS
  amyloid nucleation score: -0.474 ± 0.79

## DLYMNEASTALGLGRGFLWG
  amyloid nucleation score: -0.553 ± 1.1

## TTLYMACYSSCDEGN
  amyloid nucleation score: -0.193 ± 0.27

## SSGRGIRLTLTVSIDRKKMG
  amyloid nucleation score: -0.391 ± 0.4

## KNLVDWVYYPPMH
  amyloid nucleation score: -1.23 ± 0.62

## CVFASNKRMEGVDKKLRVRN
  amyloid nucleation score: 0.403 ± 0.62

## NITMMGLVVTFVAISVRLSL
  amyloid nucleation score: 0.959 ± 0.47

## LACTKQFQVAVVFPDYTFIA
  amyloid nucleation score: 3.71 ± 0.064

## LKVGVIDNI
  amyloid nucleation score: -1.2 ± 0.61

## PYNMVVYLGLLSRC
  amyloid nucleation score: 0.919 ± 0.17

## IHDALTRCEWGSVSPRSSGC
  amyloid nucleation score: 0.682 ± 0.28

## YMLMMALFQRC
  amyloid nucleation score: 2.75 ± 0.15

## FMWVNS
  amyloid nucleation score: inactive

## NYTNVRERGYMRVEYDMSIT
  amyloid nucleation score: 0.202 ± 0.56

## ISPEYVSTALLTECTWRVLR
  amyloid nucleation score: 0.215 ± 0.46

## FGNGDKSGMIGINVNLLCRM
  amyloid nucleation score: 5.73 ± 0.034

## LLKLCRRIKDATFDSLPGCA
  amyloid nucleation score: 0.93 ± 0.31

## LHSYWH
  amyloid nucleation score: 0.121 ± 0.2

## TRYYMYIRDVH
  amyloid nucleation score: -0.533 ± 0.44

## NIYADNARVWLPRGDRGLEW
  amyloid nucleation score: 0.799 ± 0.74

## NKGSPCISCFVENDLYYLKY
  amyloid nucleation score: -0.707 ± 0.42

## RTDRSYRGLKPVVLVTQWGG
  amyloid nucleation score: -0.106 ± 0.63

## SWLTRIC
  amyloid nucleation score: -0.249 ± 0.63

## STMWTIGSWLKAGALSFGFL
  amyloid nucleation score: -0.441 ± 0.36

## LTWFWMHSYSSFRIENHVDD
  amyloid nucleation score: 2.18 ± 0.12

## VITLRGAPYTEWLLRALLAS
  amyloid nucleation score: 0.734 ± 0.81

## HIMSIDVPSNLSLQFIMVGY
  amyloid nucleation score: 0.306 ± 0.64

## DHCDAVNSFEEWLMRGVPYN
  amyloid nucleation score: -0.06 ± 0.45

## WNFFLGMAIMGLRRSCL
  amyloid nucleation score: 4.1 ± 0.068

## YCGFVFPAWGDLLTNGSPAA
  amyloid nucleation score: 0.092 ± 0.29

## IDNEMYFAHGIRGDSLL
  amyloid nucleation score: inactive

## VYLRMSFYYGKRP
  amyloid nucleation score: 4.12 ± 0.044

## ISDRSTHQASVLTFSPPDFY
  amyloid nucleation score: inactive

## LSIRWLTSCYLYGLLGSSGK
  amyloid nucleation score: 0.256 ± 0.29

## RVTYDFFILWC
  amyloid nucleation score: 4.465 ± 0.044

## FPFKILSVKPH
  amyloid nucleation score: 3.45 ± 0.14

## GRSGVLLQRGGFVKNSRCEK
  amyloid nucleation score: 0.026 ± 1.1

## FISSADLVTNMPRI
  amyloid nucleation score: -0.8 ± 0.31

## QCGSSMFRMPVLNWTA
  amyloid nucleation score: 0.734 ± 0.81

## GRYNVDFKSIMRYIECGKTA
  amyloid nucleation score: -0.27 ± 1.1

## INIMARIWLQSVWLSVGRKS
  amyloid nucleation score: 0.097 ± 0.79

## WIKLAFDWKQF
  amyloid nucleation score: -1.18 ± 0.55

## VSKSFFIVIV
  amyloid nucleation score: 5.702 ± 0.047

## TVIIDDTCICFYYIEYMWCE
  amyloid nucleation score: inactive

## SLLYQQDGCNLVVFYQFLV
  amyloid nucleation score: 2.52 ± 0.13

## LDMITTINS
  amyloid nucleation score: -1.6 ± 0.54

## TNGLLNYCSRYTDLDNGSYR
  amyloid nucleation score: inactive

## LWSLLLWLPTYRYRLYLFGA
  amyloid nucleation score: -0.113 ± 0.79

## SSLDRKAVLAILSSTYLLRL
  amyloid nucleation score: 2.33 ± 0.23

## LAYLSLICFCVDSPTQVGLM
  amyloid nucleation score: 10.11 ± 0.038

## LTCFSPLVRLEGA
  amyloid nucleation score: -0.212 ± 0.49

## TNKYFCTFGAHGARDLQMHV
  amyloid nucleation score: inactive

## IVFPDCSRYKKPHFCYEMVI
  amyloid nucleation score: inactive

## LRPLL
  amyloid nucleation score: -0.912 ± 0.93

## VRRLLEAFWARKFFLVAITQ
  amyloid nucleation score: -0.237 ± 0.79

## GVVWKYRIFPWTFPHNFFHL
  amyloid nucleation score: -0.665 ± 0.39

## QLKSFR
  amyloid nucleation score: inactive

## ELPGPHSGVTPPACEWSTHP
  amyloid nucleation score: 0.422 ± 0.24

## LYFASVNQTNSFLRIL
  amyloid nucleation score: 2.93 ± 0.073

## VSLRSDSGLGITVLMPPSRS
  amyloid nucleation score: 1.6 ± 0.44

## MVSGRPTVYKTSSLQTASAN
  amyloid nucleation score: -0.14 ± 0.65

## NIFFNL
  amyloid nucleation score: -0.13 ± 0.36

## CCVDDRWVDARPWGSRNSRA
  amyloid nucleation score: 0.491 ± 0.57

## KQEHSYYNLDDLGHRGSEGA
  amyloid nucleation score: -0.536 ± 1.1

## ELCPAT
  amyloid nucleation score: 0.219 ± 0.3

## NFDGSCKA
  amyloid nucleation score: -0.853 ± 1.1

## NQWSLRGGYWPVVLVCFAWM
  amyloid nucleation score: inactive

## NAFGTSFCEIMRR
  amyloid nucleation score: 1.22 ± 0.33

## EGSNNVVVRDSAVYQVSGEM
  amyloid nucleation score: -0.375 ± 1.1

## RRFLNGFFRVQRLRYRHPFI
  amyloid nucleation score: -0.005 ± 0.63

## CIEDRVCLDS
  amyloid nucleation score: 8.276 ± 0.041

## FWGGDLRACSCGQGIEFAGR
  amyloid nucleation score: 3.7 ± 0.14
